According to patent US20240318218A1 (The Trustees of Columbia University in The City of New York, priority 2023, published 2024):

Legend:
ATP production = settings: 1 mM fuel; cascade with ADH, formDH and FDH; polyphosphate; 200 μL
Description: Exemplary cascades were tested with ADH and formDH. […] The cascade was tested in 200 μL reaction volumes.

human NADK = biological target: T1, human NADK (Homo sapiens, UniProt O95544); settings: cited from earlier work
T1 sequence (O95544 1-446): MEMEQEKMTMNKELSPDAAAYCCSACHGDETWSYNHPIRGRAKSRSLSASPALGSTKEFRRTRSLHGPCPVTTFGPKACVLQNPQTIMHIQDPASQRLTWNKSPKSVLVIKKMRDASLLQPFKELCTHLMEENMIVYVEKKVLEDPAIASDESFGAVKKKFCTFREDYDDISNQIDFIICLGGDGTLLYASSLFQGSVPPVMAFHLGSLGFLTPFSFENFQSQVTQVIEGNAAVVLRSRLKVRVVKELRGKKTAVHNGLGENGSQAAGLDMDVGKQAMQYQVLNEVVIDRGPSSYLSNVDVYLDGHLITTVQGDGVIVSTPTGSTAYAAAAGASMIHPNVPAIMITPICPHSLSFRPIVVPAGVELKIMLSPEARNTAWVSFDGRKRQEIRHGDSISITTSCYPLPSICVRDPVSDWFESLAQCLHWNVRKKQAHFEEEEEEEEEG

[1] = biological target: T2, B. subtilis polyphosphate NAD+ kinase (PPNK), recombinant, 6x-histidine tag (Bacillus subtilis, UniProt O31612); assay: Kinetics of polyphosphate NAD+ kinase (PPNK), coupled to TPNOX, absorbance at 340 nm; settings: 26° C., pH 7.8, 10 mM MgCl2, random bi-bi sequential
T2 sequence (O31612 1-266): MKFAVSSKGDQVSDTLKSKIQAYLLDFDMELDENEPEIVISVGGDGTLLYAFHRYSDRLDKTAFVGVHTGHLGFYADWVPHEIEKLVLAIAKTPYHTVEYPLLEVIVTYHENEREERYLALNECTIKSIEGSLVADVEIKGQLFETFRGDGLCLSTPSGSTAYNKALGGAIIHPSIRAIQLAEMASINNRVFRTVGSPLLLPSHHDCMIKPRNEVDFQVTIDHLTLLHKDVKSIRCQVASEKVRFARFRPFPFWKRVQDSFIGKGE
Description: (§4) For overexpression, the enzymes were transformed into BL21(DE3) E. coli cells (New England Biolabs). […] Overexpression of the enzymes was induced by adding isopropyl-β-thiogalactopyranoside (IPTG) to a final concentration of 1 mM at an optical density (OD) of 0.6 at 600 nm. After 3 h of induction, the cells were harvested and sonicated in wash buffer A for TPNOX (10 mM imidazole, 300 mM NaCl, and 20 mM Tris-HCl pH 7.4) and wash buffer B for all other enzymes (40 mM imidazole, 300 mM NaCl, and 20 mM Tris-HCl pH 7.4). The cells were centrifuged at 7000 rpm for 1 h and 4° C. The protein was purified using a nickel-nitrilotriacetic acid (Ni-NTA) column with continuous elution up to 500 mM imidazole.
(§5) The reaction was carried out at 26° C. in a solution containing 10 mM Tris-HCl, pH 7.8, 10 mM MgCl2, and 0.02 μg/μL TPNOX. […] A molar absorption coefficient of 6.22×10^4 mol^−1 cm^−1 was used to convert absorption to molar concentration of NADPH.

[2] = substrate: NC(=O)C1=CN([C@@H]2O[C@H](COP(=O)(O)OP(=O)(O)OC[C@H]3O[C@@H](n4cnc5c(N)ncnc54)[C@H](O)[C@@H]3O)[C@@H](O)[C@H]2O)C=CC1; assay: purified protein, by the assay type; settings: 26° C., pH 7.8, 10 mM MgCl2, random bi-bi sequential, pH 7.8, 26.0 °C
[3] = substrate: Nc1ncnc2c1ncn2[C@@H]1O[C@H](COP(=O)(O)OP(=O)(O)OP(=O)(O)O)[C@@H](O)[C@H]1O; assay: purified protein, by the assay type; settings: other: cosubstrate NADH, 26° C., pH 7.8, 10 mM MgCl2, random bi-bi sequential
Description: as §4, §5

[4] = substrate: NC(=O)c1ccc[n+]([C@@H]2O[C@H](COP(=O)([O-])OP(=O)(O)OC[C@H]3O[C@@H](n4cnc5c(N)ncnc54)[C@H](O)[C@@H]3O)[C@@H](O)[C@H]2O)c1; assay: Kinetics of formate dehydrogenase (FDH); assay type: biochemical, C. boidinii; settings: other: abbreviated sequential mechanism; pH 7.4; 37.0 °C
Description: (§1) The enzymes involved in the cascade were characterized. Kinetic parameters for the NADH-dependent dehydrogenases, PPNKs, NADPH oxidases, and NADKs included in the exemplary embodiments of the present disclosure are shown in Table I below.
(§2) The FDH from C. boidinii was expressed recombinantly in a pEt28a plasmid and purified according to the materials and methods.
(§3) For overexpression, the enzymes were transformed into BL21(DE3) E. coli cells (New England Biolabs). Overnight cultures of BL21(DE3) E. coli cells harboring the DNA in pET20b plasmids and pET28a plasmid for FDH and sfGFP, respectively, were transferred into 50 mL of LB medium with 100 μg/mL ampicillin at 37° C. Overexpression of the enzymes was induced by adding isopropyl-β-thiogalactopyranoside (IPTG) to a final concentration of 1 mM at an optical density (OD) of 0.6 at 600 nm. After 3 h of induction, the cells were harvested and sonicated in wash buffer A for TPNOX (10 mM imidazole, 300 mM NaCl, and 20 mM Tris-HCl pH 7.4) and wash buffer B for all other enzymes (40 mM imidazole, 300 mM NaCl, and 20 mM Tris-HCl pH 7.4). The cells were centrifuged at 7000 rpm for 1 h and 4° C. The protein was purified using a nickel-nitrilotriacetic acid (Ni-NTA) column with continuous elution up to 500 mM imidazole.

[5] = substrate: O=CO; assay: Kinetics of formate dehydrogenase (FDH); assay type: biochemical, C. boidinii; settings: other: abbreviated sequential mechanism; pH 7.4; 37.0 °C
Description: as §1, §2, §3

[6] = substrate: NC(=O)c1ccc[n+]([C@@H]2O[C@H](COP(=O)([O-])OP(=O)(O)OC[C@H]3O[C@@H](n4cnc5c(N)ncnc54)[C@H](OP(=O)(O)O)[C@@H]3O)[C@@H](O)[C@H]2O)c1; assay: purified protein, by the assay type; settings: other: reverse direction; random bi-bi sequential mechanism
[7] = substrate: Nc1ncnc2c1ncn2[C@@H]1O[C@H](COP(=O)(O)OP(=O)(O)O)[C@@H](O)[C@H]1O; assay: purified protein, by the assay type; assay type: biochemical, pigeon; settings: other: reverse direction; random bi-bi sequential mechanism
Description: The ATP-producing NADK has been predominantly studied in the forward direction (consuming ATP) since the observed isoforms, such as the human NADK, are irreversible. Without wishing to be bound by theory, one form, pigeon NADK, follows a random bi-bi sequential mechanism and the kinetic parameters for the reverse direction are found in Table I.
Synthetic pigeon, duck, and cat NADK genes and a cloned human NADK gene all with C-terminal 6×-histidine tags were expressed E. coli and purified to apparent homogencity. The pigeon enzyme shares 85% sequence homology with the human enzyme, while the duck and pigeon enzymes are 96% sequence homology. The cat enzyme shares a 91% sequence homology to the human enzyme.
Referring now to FIGS. 3A-3B, initial rate kinetic experiments were performed with pigeon, duck, cat, and human NADK enzymes in both the forward and reverse directions. […] In FIG. 3B, the production of ATP was detected in a coupled reaction with firefly luciferase where ATP was converted to light, the relative luminescence (RLU) was monitored, and a standard curve was used to calculate the ATP concentration. […]
ATP production was measured using firefly luciferase. […] The luminescence was measured in a plate reader in 26° C. in a solution containing 10 mM Tris-HCl, pH 7.8, and 10 mM MgCl2. The ATP produced was calculated from luminescence using a calibration plot. […]

Q: Which ATP production rate (ATP production) does the source give for CO [methanol] here?
A: 7.2×10^7 total RLU/h

Q: Which “inhibition of human NADK” value (human NADK) does the source give for NC(=O)C1=CN([C@@H]2O[C@H](COP(=O)(O)OP(=O)(O)OC[C@H]3O[C@@H](n4cnc5c(N)ncnc54)[C@H](OP(=O)(O)O)[C@@H]3O)[C@@H](O)[C@H]2O)C=CC1 [NADPH] here?
A: inhibited

Q: Which ATP production rate (ATP production) does the source give for O=CO [formate] here?
A: 1.3×10^7 total RLU/h

Q: With NC(=O)c1ccc[n+]([C@@H]2O[C@H](COP(=O)([O-])OP(=O)(O)OC[C@H]3O[C@@H](n4cnc5c(N)ncnc54)[C@H](OP(=O)(O)O)[C@@H]3O)[C@@H](O)[C@H]2O)c1 [NADP^+] as the molecule, how does the “inhibition of human NADK” value (human NADK) read?
A: not

Q: Which “inhibition of human NADK” value (human NADK) does the source give for NC(=O)C1=CN([C@@H]2O[C@H](COP(=O)(O)OP(=O)(O)OC[C@H]3O[C@@H](n4cnc5c(N)ncnc54)[C@H](O)[C@@H]3O)[C@@H](O)[C@H]2O)C=CC1 [NADH] here?
A: inhibited

Q: And the kcat ([1]; substrates NADH and ATP)?
A: (2.6 ± 1.9) × 10^2 min^−1

Q: And the kcat ([1]; substrates NADH and poly(P) (sodium metaphosphate))?
A: (5.6 ± 2.6) × 10^2 min^−1

B1: B. subtilis polyphosphate NAD+ kinase (PPNK), recombinant, 6x-histidine tag (Bacillus subtilis subsp. subtilis str. 168) (protein)
chain: T2 sequence (O31612 1-266)
Q: What does the source list for B1?
A: Km ([2]; other: cosubstrate ATP): 1700 ± 1400 µM; Km ([2]; other: cosubstrate poly(P) (sodium metaphosphate)): 1200 ± 600 µM; Km [3]: 1400 ± 1110 µM

B2: C. boidinii formate dehydrogenase (FDH), recombinant ([Candida] boidinii) (protein)
chain: MKIVLVLYDAGKHAADEEKLYGCTENKLGIANWLKDQGHELITTSDKEGETSELDKHIPDADIIITTPFHPAYITKERLDKAKNLKLVVVAGVGSDHIDLDYINQTGKKISVLEVTGSNVVSVAEHVVMTMLVLVRNFVPAHEQIINHDWEVAAIAKDAYDIEGKTIATIGAGRIGYRVLERLLPFNPKELLYYDYQALPKEAEEKVGARRVENIEELVAQADIVTVNAPLHAGTKGLINKELLSKFKKGAWLVNTARGAICVAEDVAAALESGQLRGYGGDVWFPQPAPKDHPWRDMRNKYGAGNAMTPHYSGTTLDAQTRYAEGTKNILESFFTGKFDYRPQDIILLNGEYVTKAYGKHDKK
notes: made in house; host or cells: E. coli BL21(DE3)
Q: Which Km [4] does the source give for B2 here?
A: 30 ± 2 µM

Q: What about the kcat [4] of the same molecule?
A: (3.4 ± 0.1) × 10^2 min^−1

Q: What about the Km [5] of the same molecule?
A: 4000 ± 60 µM

B3: pigeon NADK (ATP-NAD+ kinase), recombinant, C-terminal 6x-histidine tag (Columba livia) (protein)
chain: MEMNRDKLCPGKADVSSDSAYHCSTCHDDEEWSNTSRGRAKSRSLSASPALGSTKEFRRTRSLHGPCPVTTFGPKACMLQNPKTIMHIQDPASQRLTWNKPPKSVLVIKKIRDASLLQPFKELCVYLTEENNMIVYVEKKVLEDPAIANDDNFGPVKKKFCTFREDYDDISNQIDFIICLGGDGTLLYASSLFQGSVPPVMAFHLGSLGFLTPFNFENFQSQVTQVIEGNAALVLRSRLKVKVVKEHREKTTVQNGIEENGVVSANIEKEVGKQIMQYQVLNEVVVDRGPSSYLSNVDVFLNGHLITTVQGDGVIVSTPTGSTAYAAAAGASMIHPNVPAIMITPICPHSLSFRPIVVPAGVELKIMLSPDARNTAWVSFDGRKRQEICHGDSISITTSCYPLPSICFRDPVSDWFESLAECLHWNVRKKQNNFAVEEEEF
Q: Which Km [6] does the source give for B3 here?
A: 730 ± 160 µM

Q: And the kcat [6]?
A: 0.145 ± 0.06 s⁻¹

Q: What about the Km [7] of the same molecule?
A: 27000 ± 10000 µM
